Results taken from US20170306038A1, “COMPOSITIONS AND METHODS OF USE FOR AUGMENTED IMMUNE RESPONSE AND CANCER THERAPY” (priority 2014, published 2017).

How the values were obtained:
human GITR [1] = molecular target: T1, human GITR (Homo sapiens, UniProt Q9Y5U5); assay: NFκB-Luciferase reporter gene assay, 293 cells with human GITR; assay type: cell-based; conditions: antibodies crosslinked
T1 construct: expressed in transfected cells; host or cells: HEK-293 (293) cells
T1 sequence (Q9Y5U5 26-241): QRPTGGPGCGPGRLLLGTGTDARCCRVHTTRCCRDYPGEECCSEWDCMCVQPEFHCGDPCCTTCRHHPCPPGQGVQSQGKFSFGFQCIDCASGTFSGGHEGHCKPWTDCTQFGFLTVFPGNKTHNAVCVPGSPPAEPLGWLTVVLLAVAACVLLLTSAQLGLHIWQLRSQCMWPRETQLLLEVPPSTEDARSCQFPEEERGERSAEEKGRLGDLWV
Experimental: To generate the 293-hGITR-NFκB reporter gene cells line, 293 cells were stably transfected with an NFκB-Luciferase reporter gene and human GITR (or cyno GITR). Activation of the GITR signaling pathway in these cells was determined by measuring the levels of luciferase induced within the cells after a 24 hour incubation with GITR-L or agonistic antibody. To assess the effects of cross-linking Abs, they were incubated with an excess of a F(ab′)2 goat anti-human Fcγ fragment specific antibody or protein A before using in the reporter gene assay.
Functional activity of MABs were tested in an NFkB reporter gene assay for agonist activity. MAB was diluted to 6 μg/mL in PBS and incubated for 30 minutes at room temperature in the presence/absence of a 3 fold excess of F(ab′)2 fragment goat anti-human Fcγ specific crosslinker. Alternatively, MAB was diluted to 6 μg/mL in PBS and incubated for 30 minutes at room temperature in the presence/absence of a 2 fold excess of Protein A. 10 μL of incubated MAB was then added to a 384 well white clear bottomed assay plate. A HEK-293 cell line stably transfected with hGITR and a NFκB reporter gene was diluted to 5×10^5 cells/mL and 20 μL of the cell suspension was added to each well. […] 30 μL of Cell Bright Glo was added to each well and the plate was read for luminescence on the Acquest.

cynomolgus GITR = assay: ELISA binding to GITR extracellular domain, cyno
Experimental: (§1) Binding of the MABs to GITR from various species, various alanine mutant constructs or GITR extracellular domain—was assessed using a 384-well plate was coated with rat, mouse, human or cyno GITR extracellular domain (ECD) at 50 ng per well and incubated overnight at 4° C. The plate was blocked with a solution of 1% BSA in PBS for one hour at room temperature and then rinsed three times with PBST. The MAB was then diluted to 0.5 μg/mL or 1 μg/mL in PBS and 20 μL was added to each well. The plate was incubated for 1 hour at room temperature and then washed three times with PBST. Anti-human kappa antibody (Sigma #A7164), anti-human gamma antibody (Jackson Immunoresearch 109-036-098), goat anti-mouse antibody (Jackson ImmunoResearch 115-035-071) conjugated to HRP was diluted 1:5000 in Blocking Buffer (25 μL) and added to each well, or a hrp conjugated HIS antibody (QIAGEN 1014992) diluted 1:1000 in Blocking Buffer was added. The plate was incubated for 1 hour at room temperature, and then washed six times with PBST. 25 μL of SureBlue TMB (KPL 52-00-02) substrate was added to each well and the plate was incubated for about 10 min at room temperature. Plates were read at 650 nm in a spectrophotometer.

rodent GITR = assay: ELISA binding to GITR extracellular domain, rodent; design: species or system rat, mouse
Experimental: as §1

human GITR [2] = molecular target: T2, human GITR (Homo sapiens, UniProt Q9Y5U5); assay: ELISA binding to GITR extracellular domain, human
T2 construct: coated with rat, mouse, human or cyno GITR extracellular domain (ECD) at 50 ng per well
T2 sequence (Q9Y5U5 26-162 limits assumed): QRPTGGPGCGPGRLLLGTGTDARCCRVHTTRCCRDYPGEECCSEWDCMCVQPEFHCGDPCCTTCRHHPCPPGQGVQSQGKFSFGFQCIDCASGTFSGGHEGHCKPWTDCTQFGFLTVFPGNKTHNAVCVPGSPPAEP
Experimental: as §1

B1: GITRL: recombinant human GITR ligand (GITR-L) (protein)
chain: ETAKEPCMAKFGPLPSKWQMASSEPPCVNKVSDWKLEILQNGLYLIYGQVAPNANYNDVAPFEVRLYKNKDMIQTLTNKSKIQNVGGTYELHVGDTIDLIFNSEHQVLKNNTYWGIILLANPQFIS
- NFκB activity / intracellular signaling (human GITR [1]): activates intracellular signaling

B2: MAB1: murine monoclonal GITR agonist antibody (parental); VH SEQ ID NO:61, VL SEQ ID NO:59 (antibody, V domains shown)
VH: QVQLKESGPGLVAPSQSLSITCTVSGFSLRSYGVDWVRQPPGKGLEWLGVIWGGGGTNYNSALMAKLSISKDKSKSQVFLKMNSLQTDDTAMYYCAKHAYGHDGGFAMDYWGQGTSVTVSS
VL: NIVMTQSPKSMSMSVGERVTLSCKASENVDTFVSWYQQKPDHSPKLLIYGASNRYTGVPDRFTGSGSATDFTLTISSVQAEDLADYHCGQSYSYPFTFGSGTKLEIK
- binding to cynomolgus GITR in ELISA (cynomolgus GITR): binds
- binding to rodent GITR in ELISA (rodent GITR): not rodent GITR
- binding to human GITR in ELISA (human GITR [2]): binds
